The values below come from article PMC3575409, “Identification of a Novel Protein-Protein Interaction Motif Mediating Interaction of GPCR-Associated Sorting Proteins with G Protein-Coupled Receptors” (PLoS ONE, 2013).

The assay relates to GST-fused ADRB1 C-tail. Kind of assay: GST-pull down, ADRB1 C-tail. To be noted: percent of full-length GASP-1 interaction; three independent experiments. The assay is classed as binding. The gist of the method:
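Fusion proteins bearing cytoplasmic receptor C-tails downstream of GST are captured on glutathione beads and exposed to [35S]-labelled GASPs made by in vitro translation. Incubation runs 1 h at 4°C in ice-cold Triton X-100 buffer, pH 7.4. Gel-separated bound GASP is measured by phosphorimaging.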

B1: central domain of GASP-1: central portion of GASP-1 (AA 380 to 1073) that contains 19 GASP motif (protein)
chain: MTKEEAKTKARARAKQEARSEEEALIGTWFWATDESSMADEASIESSLQVEDESIIGSWFWTEEEASMGTGASSKSRPRTDGERIGDSLFGAREKTSMKTGAEATSESILAADDEQVIIGSWFWAGEEVNQEAEEETIFGSWFWVIDAASVESGVGVSCESRTRSEEEEVIGPWFWSGEQVDIEAGIGEEARPGAEEETIFGSWFWAENQTYMDCRAETSCDTMQGAEEEEPIIGSWFWTRVEACVEGDVNSKSSLEDKEEAMIPCFGAKEEVSMKHGTGVRCRFMAGAEETNNKSCFWAEKEPCMYPAGGGSWKSRPEEEEDIVNSWFWSRKYTKPEAIIGSWLWATEESNIDGTGEKAKLLTEEETIINSWFWKEDEAISEATDREESRPEAEEGDIIGSWFWAGEEDRLEPAAETREEDRLAAEKEGIVGSWFGAREETIRREAGSCSKSSPKAEEEEVIIGSWFWEEEASPEAVAGVGFESKPGTEEEEITVGSWFWPEEEASIQAGSQAVEEMESETEEETIFGSWFWDGKEVSEEAGPCCVSKPEDDEEMIVESWFWSRDKAIKETGTVATCESKPENEEGAIVGSWFEAEDEVDNRTDNGSNCGSRTLADEDEAIVGSWFWAGDEAHFESNPSPVFRAICRSTCSVEQEPDPSRRPQSWEEVTVQFKPGPWGRVGFPSISPFRFPKE
modifications: left off: GST, N-terminal, kept
notes: central portion of GASP-1 (AA 380 to 1073) that contains 19 GASP motif
With B1, the “interaction with ADRB1 C-tail relative to full-length GASP-1” value is reported as “around 70%”.
